Test results reported in patent US20130224191A1, “NOTUM PROTEIN MODULATORS AND METHODS OF USE” (priority 2010, published 2013).
Read-outs that look alike come from different tables or passages of the source.

What was measured:
[1] = system: luciferase transcription in the 293.TCF cells; test: Luciferase reporter activation in 293.TCF cells; type: cell-based, human; conditions: 40 mM
Excerpt: To generate a stable population of cells that contain a reporter for the activation of canonical Wnt signaling, HEK 293T cells were transduced with a lentiviral vector, pGreenFirel-TCF (System Biosciences) which encodes a bifunctional GFP and luciferase reporter cassette under the control of a minimal CMV reporter linked to four tandem repeats of the transcriptional response elements for TCF. Transduced cells populations, termed 293.TCF cells, were subsequently used in a Wnt3A canonical signaling assay as follows: 2.5×10^4 293.TCF cells were plated per well of a 96-well tissue culture plate in 50 μL of serum-free DME medium. After 24 hours of serum starvation, 25 μL of various dilutions of conditioned medium (CM) from L/Wnt3A cells (ATCC CRL-2647; Willert, 2003) or undiluted CM from parental L-cells (ATCC CRL-2648) along with 25 μL of DMEM+0.2% FBS were added to each well. […] The contents of each well were then mixed thoroughly to lyse the cells, 100 μL of lysate transferred to black 96-well plates, and the luminescence in each well read after 5 mins using a Wallac Victor3 Multilabel Counter (Perkin-Elmer Corp). […] More particularly, as the Wnt3A+ CM media is diluted from 25% down to approximately 3%, activation of the Wnt pathway is reduced with a corresponding decrease in luminescence.

[2] = biological target: Wnt3A (conditioned medium from L/Wnt3A cells, ATCC CRL-2647) (UniProt P27467); test: cell-based or functional assay; parameters: unit not given beside the values
[3] = system: Wnt3A-mediated induction of luciferase in the 293.TCF cells; test: Wnt3A canonical signaling assay, bioactivity of Notum constructs; type: cell-based, human
Excerpt: To generate a stable population of cells that contain a reporter for the activation of canonical Wnt signaling, HEK 293T cells were transduced with a lentiviral vector, pGreenFirel-TCF (System Biosciences) which encodes a bifunctional GFP and luciferase reporter cassette under the control of a minimal CMV reporter linked to four tandem repeats of the transcriptional response elements for TCF. Transduced cells populations, termed 293.TCF cells, were subsequently used in a Wnt3A canonical signaling assay as follows: 2.5×10^4 293.TCF cells were plated per well of a 96-well tissue culture plate in 50 μL of serum-free DME medium. After 24 hours of serum starvation, 25 μL of various dilutions of conditioned medium (CM) from L/Wnt3A cells (ATCC CRL-2647; Willert, 2003) or undiluted CM from parental L-cells (ATCC CRL-2648) along with 25 μL of DMEM+0.2% FBS were added to each well. Eighteen hours after addition of CM, 100 μL of One-Glo solution (ProMega Corp.) was added to each well. The contents of each well were then mixed thoroughly to lyse the cells, 100 μL of lysate transferred to black 96-well plates, and the luminescence in each well read after 5 mins using a Wallac Victor3 Multilabel Counter (Perkin-Elmer Corp). […] More particularly, as the Wnt3A+ CM media is diluted from 25% down to approximately 3%, activation of the Wnt pathway is reduced with a corresponding decrease in luminescence.
Once the luciferase reporter system was established, assays for determining the bioactivity of various Notum modulators were performed as follows. 2.5×10^4 293.TCF cells were plated per well of a 96-well tissue culture plate in 50 μL of serum-free medium. After 23 hours of serum starvation, 25 μL of DMEM+0.2% FBS containing various Notum modulators at various concentrations (e.g., hNotum-His, hNotum-hFc, hNotum-S232A-His, murine Notum-His, murine Notum-hFc, macaque Notum-hFc, control protein-His or control protein-hFc obtained as per Examples 7, 8 and 13 above), were added to the cells. After 1 hour, 25 μL of Wnt3A or control L-cell CM were added to each well. Eighteen hours after addition of CM, 100 μL of One-Glo solution (ProMega Corp.) was added to each well, the contents of each well mixed thoroughly to lyse the cells, 100 μL of lysate transferred to black 96-well plates, and the luminescence read after 5 minutes.

[4] = system: mouse lineage-depleted NTX tumor cells from SCRx-CR42; test: Cell survival/proliferation, CellTiterGlo, SCRx-CR42; type: cell-based, human; conditions: 10 μg/mL, 14 days
Protocol: (§1) To determine whether Notum protein impacts cell proliferation and/or apoptosis of human colorectal cancer cells, HCT-116 cells or mouse lineage-depleted NTX tumor cells (i.e. human tumor cells) were plated as described below and exposed to recombinant hNotum (e.g. hNotum-His or hNotum-hFc) and anti-Notum antibodies. Cell numbers were then assessed 12-14 days later.
(§2) Cells were then incubated for 14 days at 37° C., 5% CO2 and 5% O2 and the number of viable cells was assessed using Promega's CellTiterGlo assay kit per the manufacturer's instructions. For the HCT-116 cell line (a commercially available colorectal tumor cell line), cells were plated at 2,000 cells per well in DMEM+1% FBS, followed 24-hours later by the addition of serum free DMEM containing recombinant human Notum in the presence or absence of monoclonal antibodies SC2.D2.2 or SC2.10B3. HCT-116 cells were then incubated for 12 days at 37° C., 5% CO2 and cell viability was assessed with Promega's CellTiterGlo assay kit. Higher readings are indicative of higher viable cell counts.

[5] = Esterase activity of Notum proteins on chromogenic substrates; type: biochemical; conditions: 1 hour at 37° C.
Protocol: Briefly, PNPA or PNPB were dissolved/diluted in isopropanol to final concentrations of 10 mM. These substrate solutions were diluted 1:10 into assay buffer (0.1% gum arabic, 2.3 mg/mL sodium dexoycholate, 1×PBS) and incubated with defined amounts of hNotum enzyme, and the enzymatic release of the chromophore p-nitrophenol monitored by absorbance measurements at 405 nm.

[6] = 4-MUH fluorescent hydrolase assay, activity of Notum constructs; type: biochemical
Protocol: In addition to the assays described in Examples 23 and 24, a fluorescent esterase substrate, 4-methylumbelliferyl heptanoate (Sigma), can be used to measure the activity of hydrolases using standard assay conditions (Richardson and Smith, 2007, PMID: 17620441; Jacks and Kircher, 1967, PMID: 5582971). Briefly, 4-MUH was dissolved in DMSO to a final concentration of 1.2 mM. This substrate was diluted 1:10 into assay buffer (0.1M Tris, pH 7.5, 50 mM NaCl, 0.05% Brij) and incubated with defined amounts of Notum enzyme or point-mutated Notum enzymes, and enzymatic release of the fluorescent molecule 4-methylumbelliferone monitored (355 nm excitation, 460 nm emission) using a Wallac Victor3 Multilabel Counter (Perkin Elmer).

HCT-116 cells = test: Cell survival/proliferation, CellTiterGlo, HCT-116; type: cell-based, human; conditions: 10 μg/mL, 12 days
Protocol: as §1, §2

[7] = Lipase activity of hNotum, turbidometric Tween 20 lipolysis; type: biochemical
Protocol: Briefly, recombinant hNotum (1 μg/well) was added to an assay buffer containing 50 mM Tris, pH 7.4, 33.3 mM CaCl2, and 0.33% Tween-20. When the Tween 20 monolauryl group is cleaved by lipases (e.g. hNotum), the free fatty acid forms an insoluble complex with the Ca^2+ cations resulting in a turbid solution, the OD of which can be measured at 405 nm to provide a measure of lipase activity. As a positive control, the activity of porcine pancreatic lipase (Sigma Aldrich) was measured in the same assay.

Wnt3A (conditioned medium from L/Wnt3A cells, ATCC CRL-2647), sequence (P27467 19-352 limits assumed): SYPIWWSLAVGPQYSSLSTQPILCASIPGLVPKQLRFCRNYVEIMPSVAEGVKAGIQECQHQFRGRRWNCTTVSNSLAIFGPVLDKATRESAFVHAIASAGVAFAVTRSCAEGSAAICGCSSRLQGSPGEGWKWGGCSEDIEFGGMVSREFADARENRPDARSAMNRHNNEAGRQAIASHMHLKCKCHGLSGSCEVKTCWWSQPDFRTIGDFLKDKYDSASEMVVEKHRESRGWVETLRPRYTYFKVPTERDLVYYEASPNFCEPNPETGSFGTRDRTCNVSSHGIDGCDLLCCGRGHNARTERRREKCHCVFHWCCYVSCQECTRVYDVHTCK

**Q.** For `[Cl-].[Li+]` [LiCl], which “activation of luciferase transcription” value [1] is on record?
**A.** activate luciferase transcription

**Q.** For “hNotum-Fc (human Notum fused to human IgG2 Fc) (Fc fusion)”, which IC50 of the decrease in luciferase activity (293.TCF Wnt3A assay) [2] is on record?
**A.** 0.47

B1: hNotum-His: recombinant His tagged human Notum protein (protein)
chain: SEGRKTWRRRGQQPPPPPRTEAAPAAGQPVESFPLDFTAVEGNMDSFMAQVKSLAQSLYPCSAQQLNEDLRLHLLLNTSVTCNDGSPAGYYLKESRGSRRWLLFLEGGWYCFNRENCDSRYDTMRRLMSSRDWPRTRTGTGILSSQPEENPYWWNANMVFIPYCSSDVWSGASSKSEKNEYAFMGALIIQEVVRELLGRGLSGAKVLLLAGSSAGGTGVLLNVDRVAEQLEKLGYPAIQVRGLADSGWFLDNKQYRHTDCVDTITCAPTEAIRRGIRYWNGVVPERCRRQFQEGEEWNCFFGYKVYPTLRCPVFVVQWLFDEAQLTVDNVHLTGQPVQEGLRLYIQNLGRELRHTLKDVPASFAPACLSHEIIIRSHWTDVQVKGTSLPRALHCWDRSLHDSHKASKTPLKGCPVHLVDSCPWPHCNPSCPTVRDQFTGQEMNVAQFLMHMGFDMQTVAQPQGLEPSELLGMLSNGS
modifications: left off: small tags and cut ends
notes: recombinant His tagged human Notum protein
**Q.** With B1 as the molecule, how does the “antagonism of Wnt3A-mediated induction of luciferase” value (“antagonism” for short) [3] read?
**A.** functionally antagonize

**Q.** And the “increase in cell counts” value [4]?
**A.** 20-45%

B2: human-NOTUM S232A mutant: human Notum with S232A point mutation of the putative catalytic nucleophile (His and hFc) (protein, UniProt Q6P988 20-496, looked up, variant S232A)
Palmitoleoyl-protein …: SEGRKTWRRRGQQPPPPPRTEAAPAAGQPVESFPLDFTAVEGNMDSFMAQVKSLAQSLYPCSAQQLNEDLRLHLLLNTSVTCNDGSPAGYYLKESRGSRRWLLFLEGGWYCFNRENCDSRYDTMRRLMSSRDWPRTRTGTGILSSQPEENPYWWNANMVFIPYCSSDVWSGASSKSEKNEYAFMGALIIQEVVRELLGRGLSGAKVLLLAGSAAGGTGVLLNVDRVAEQLEKLGYPAIQVRGLADSGWFLDNKQYRHTDCVDTITCAPTEAIRRGIRYWNGVVPERCRRQFQEGEEWNCFFGYKVYPTLRCPVFVVQWLFDEAQLTVDNVHLTGQPVQEGLRLYIQNLGRELRHTLKDVPASFAPACLSHEIIIRSHWTDVQVKGTSLPRALHCWDRSLHDSHKASKTPLKGCPVHLVDSCPWPHCNPSCPTVRDQFTGQEMNVAQFLMHMGFDMQTVAQPQGLEPSELLGMLSNGS
modifications: His tag or human Fc
**Q.** Which “antagonism” value [3] does the source give for B2 here?
**A.** did not antagonize

**Q.** And the “antagonism” value ([3]; listed as S232A)?
**A.** no ability to antagonize

**Q.** And the esterase activity [5]?
**A.** greatly reduced esterase activity

**Q.** And the “hydrolysis of the 4-MUH substrate” value [6]?
**A.** no ability to hydrolyze the 4-MUH substrate

B3: hNotum: recombinant human Notum protein (e.g. hNotum-His or hNotum-hFc) (protein)
chain: SEGRKTWRRRGQQPPPPPRTEAAPAAGQPVESFPLDFTAVEGNMDSFMAQVKSLAQSLYPCSAQQLNEDLRLHLLLNTSVTCNDGSPAGYYLKESRGSRRWLLFLEGGWYCFNRENCDSRYDTMRRLMSSRDWPRTRTGTGILSSQPEENPYWWNANMVFIPYCSSDVWSGASSKSEKNEYAFMGALIIQEVVRELLGRGLSGAKVLLLAGSSAGGTGVLLNVDRVAEQLEKLGYPAIQVRGLADSGWFLDNKQYRHTDCVDTITCAPTEAIRRGIRYWNGVVPERCRRQFQEGEEWNCFFGYKVYPTLRCPVFVVQWLFDEAQLTVDNVHLTGQPVQEGLRLYIQNLGRELRHTLKDVPASFAPACLSHEIIIRSHWTDVQVKGTSLPRALHCWDRSLHDSHKASKTPLKGCPVHLVDSCPWPHCNPSCPTVRDQFTGQEMNVAQFLMHMGFDMQTVAQPQGLEPSELLGMLSNGS
**Q.** Which “antagonism” value [3] does the source give for B3 here?
**A.** antagonizes Wnt3A CM

**Q.** And the “antagonism” value ([3]; listed as wild-type human Notum)?
**A.** can inhibit the response of the 293.TCF cells to Wnt3A in a dose-dependent fashion

**Q.** And the “increase in cell numbers” value (HCT-116 cells)?
**A.** more than 2 fold

**Q.** What about the esterase activity [5] of the same molecule?
**A.** has carboxyesterase activity

**Q.** What about the lipase activity [7] of the same molecule?
**A.** capable of cleaving Tween 20 in a dose dependent fashion

**Q.** What about the “hydrolysis of the 4-MUH substrate” value [6] of the same molecule?
**A.** capable of hydrolyzing the 4-MUH substrate

B4: macaque Notum: recombinant macaque Notum protein, construct not stated (protein)
chain: SEGRKTWRRRGQQPPPPPRTEAAPAAGQPVESFPLDFTAVEGNMDSFMAQVKSLAQSLYPCSAQQLNEDLRLHLLLNTSVTCNDGSPAGYYLKESRGSRRWLLFLEGGWYCFNRENCDSRYNTMRRLMSSRDWPRTRTGTGILSSQPEENPYWWNANMVFIPYCSSDVWSGASSKSEKNEYAFMGALIIQEVVRELLGRGLSGAKVLLLAGSSAGGTGVLLNVDRVAEQLEELGYPAIQVRGLADSGWFLDNKQYRHTDCVDTITCAPTEAIRRGIRYWNGVVPERCRRQFQEGEEWNCFFGYKIYPTLRCPVFVVQWLFDEAQLTVDNVHLTGQPVQESQRLYIQNLGRELRHTLKDVPASFAPACLSHEIIIRSHWTDVQVKGTSLPRALHCWDRSLHDSHKNSKTPLKGCPVHLVDSCPWPHCNPSCPTVRDQFTGQEMNVAQFLMHMGFDVQTVAQQQGPEPSKLLGL
modifications: left off: a dimerising Fc or GST
**Q.** With B4 as the molecule, how does the esterase activity [5] read?
**A.** display esterase activity
